Data reported in publication PMC8744557, “Engineering the Catalytic Properties of Two-Domain Laccase from Streptomyces griseoflavus Ac-993” (International Journal of Molecular Sciences, 2021).

How the values were obtained:
purified protein [1] = substrate: CCn1c(=NN=c2sc3cc(S(=O)(=O)O)ccc3n2CC)sc2cc(S(=O)(=O)O)ccc21; experiment: purified protein; format: biochemical, Streptomyces griseoflavus; details: 50 mM Britton-Robinson buffer, O2 co-substrate
purified protein [2] = substrate: COc1cccc(OC)c1O; experiment: purified protein; format: biochemical, Streptomyces griseoflavus; details: 50 mM Britton-Robinson buffer, O2 co-substrate

Protein | Km (purified protein [1]; pH 4.0, 30 °C) [µM] | kcat (purified protein [1]; pH 4.0, 30 °C) [s⁻¹] | kcat/Km (purified protein [1]; pH 4.0, 30 °C) [M⁻¹ s⁻¹] | Km (purified protein [2]; pH 8.0, 30 °C) [µM] | kcat (purified protein [2]; pH 8.0, 30 °C) [s⁻¹] | kcat/Km (purified protein [2]; pH 8.0, 30 °C) [M⁻¹ s⁻¹] | Km (purified protein [1]; pH 3.5, 30 °C) [µM] | kcat (purified protein [1]; pH 3.5, 30 °C) [s⁻¹] | kcat/Km (purified protein [1]; pH 3.5, 30 °C) [M⁻¹ s⁻¹] | Km (purified protein [2]; pH 8.5, 30 °C) [µM] | kcat (purified protein [2]; pH 8.5, 30 °C) [s⁻¹] | kcat/Km (purified protein [2]; pH 8.5, 30 °C) [M⁻¹ s⁻¹] | further results
SgfSL (SgfSLwt) (Streptomyces griseoflavus) (protein, pET32-Xa/Lic, thioredoxin/His tail cut with factor Xa; E. coli BL21(DE3)/Rosetta; homotrimer; primers encode N-terminus AGAAPAGG and C-terminus PQEHAH) AGAAPAGGEVRRVTMYAERLAGGQMGYGLEKGKASIPGPLIELNEGDTLHVEFENTMDVPVSLHVHGLDYEISSDGTKQNKSHVEPGGTRTYTWRTHEPGRRADGTWRAGSAGYWHYHDHVVGTEHGTGGIRNGLYGPVIVRRKGDVLPDATHTIVFNDMTINNRPAHTGPNFEATVGDRVEIVMITHGEYYHTFHMHGHRWADNRTGMLTGPDDPSQVIDNKICGPADSFGFQIIAGEGVGAGAWMYHCHVQSHSDMGMVGLFLVKKPDGTIPGYDPQEHAH | 360 ± 70 | 15 ± 1 | 42000 | – | – | – | – | – | – | – | – | – | Km (purified protein [2]; pH 9.0, 30 °C): 320 ± 80 µM; kcat (purified protein [2]; pH 9.0, 30 °C): 0.35 ± 0.02 s⁻¹; kcat/Km (purified protein [2]; pH 9.0, 30 °C): 1090 M⁻¹ s⁻¹
SgfSL (SgfSLwt) (Streptomyces griseoflavus; M199A) (protein, pET32-Xa/Lic, thioredoxin/His tail cut with factor Xa; E. coli BL21(DE3)/Rosetta; homotrimer; primers encode N-terminus AGAAPAGG and C-terminus PQEHAH) AGAAPAGGEVRRVTMYAERLAGGQMGYGLEKGKASIPGPLIELNEGDTLHVEFENTMDVPVSLHVHGLDYEISSDGTKQNKSHVEPGGTRTYTWRTHEPGRRADGTWRAGSAGYWHYHDHVVGTEHGTGGIRNGLYGPVIVRRKGDVLPDATHTIVFNDATINNRPAHTGPNFEATVGDRVEIVMITHGEYYHTFHMHGHRWADNRTGMLTGPDDPSQVIDNKICGPADSFGFQIIAGEGVGAGAWMYHCHVQSHSDMGMVGLFLVKKPDGTIPGYDPQEHAH | 320 ± 50 | 33 ± 2 | 102000 | 830 ± 80 | 1.3 ± 0.05 | 1550 | – | – | – | – | – | – | –
SgfSL (SgfSLwt) (Streptomyces griseoflavus; H165A/M199G) (protein, pET32-Xa/Lic, thioredoxin/His tail cut with factor Xa; E. coli BL21(DE3)/Rosetta; homotrimer; primers encode N-terminus AGAAPAGG and C-terminus PQEHAH) AGAAPAGGEVRRVTMYAERLAGGQMGYGLEKGKASIPGPLIELNEGDTLHVEFENTMDVPVSLHVHGLDYEISSDGTKQNKSHVEPGGTRTYTWRTHEPGRRADGTWRAGSAGYWHYHDHVVGTEAGTGGIRNGLYGPVIVRRKGDVLPDATHTIVFNDGTINNRPAHTGPNFEATVGDRVEIVMITHGEYYHTFHMHGHRWADNRTGMLTGPDDPSQVIDNKICGPADSFGFQIIAGEGVGAGAWMYHCHVQSHSDMGMVGLFLVKKPDGTIPGYDPQEHAH | – | – | – | – | – | – | 90 ± 10 | 9 | 95000 | – | – | – | Km (purified protein [2]; pH 6.5, 30 °C): 280 ± 50 µM; kcat (purified protein [2]; pH 6.5, 30 °C): 0.31 ± 0.01 s⁻¹; kcat/Km (purified protein [2]; pH 6.5, 30 °C): 1110 M⁻¹ s⁻¹
SgfSL (SgfSLwt) (Streptomyces griseoflavus; Y230A) (protein, pET32-Xa/Lic, thioredoxin/His tail cut with factor Xa; E. coli BL21(DE3)/Rosetta; homotrimer; primers encode N-terminus AGAAPAGG and C-terminus PQEHAH) AGAAPAGGEVRRVTMYAERLAGGQMGYGLEKGKASIPGPLIELNEGDTLHVEFENTMDVPVSLHVHGLDYEISSDGTKQNKSHVEPGGTRTYTWRTHEPGRRADGTWRAGSAGYWHYHDHVVGTEHGTGGIRNGLYGPVIVRRKGDVLPDATHTIVFNDMTINNRPAHTGPNFEATVGDRVEIVMITHGEAYHTFHMHGHRWADNRTGMLTGPDDPSQVIDNKICGPADSFGFQIIAGEGVGAGAWMYHCHVQSHSDMGMVGLFLVKKPDGTIPGYDPQEHAH | – | – | – | – | – | – | 170 ± 40 | 29 ± 3 | 169000 | 760 ± 30 | 1.68 ± 0.07 | 2220 | –
SgfSL (SgfSLwt) (Streptomyces griseoflavus; M199G) (protein, pET32-Xa/Lic, thioredoxin/His tail cut with factor Xa; E. coli BL21(DE3)/Rosetta; homotrimer; primers encode N-terminus AGAAPAGG and C-terminus PQEHAH) AGAAPAGGEVRRVTMYAERLAGGQMGYGLEKGKASIPGPLIELNEGDTLHVEFENTMDVPVSLHVHGLDYEISSDGTKQNKSHVEPGGTRTYTWRTHEPGRRADGTWRAGSAGYWHYHDHVVGTEHGTGGIRNGLYGPVIVRRKGDVLPDATHTIVFNDGTINNRPAHTGPNFEATVGDRVEIVMITHGEYYHTFHMHGHRWADNRTGMLTGPDDPSQVIDNKICGPADSFGFQIIAGEGVGAGAWMYHCHVQSHSDMGMVGLFLVKKPDGTIPGYDPQEHAH | 200 ± 60 | 45 ± 7 | 226000 | 670 ± 120 | 3.39 ± 0.17 | 5070 | – | – | – | – | – | – | –
SgfSL (SgfSLwt) (Streptomyces griseoflavus; M199G/R240H) (protein, pET32-Xa/Lic, thioredoxin/His tail cut with factor Xa; E. coli BL21(DE3)/Rosetta; homotrimer; primers encode N-terminus AGAAPAGG and C-terminus PQEHAH) AGAAPAGGEVRRVTMYAERLAGGQMGYGLEKGKASIPGPLIELNEGDTLHVEFENTMDVPVSLHVHGLDYEISSDGTKQNKSHVEPGGTRTYTWRTHEPGRRADGTWRAGSAGYWHYHDHVVGTEHGTGGIRNGLYGPVIVRRKGDVLPDATHTIVFNDGTINNRPAHTGPNFEATVGDRVEIVMITHGEYYHTFHMHGHHWADNRTGMLTGPDDPSQVIDNKICGPADSFGFQIIAGEGVGAGAWMYHCHVQSHSDMGMVGLFLVKKPDGTIPGYDPQEHAH | – | – | – | – | – | – | 100 ± 15 | 20 ± 1 | 203000 | 250 ± 20 | 4.18 ± 0.09 | 16500 | –
